1 substance from article PMC4224142 can be followed below.

This experiment concerns the target JunD, endogenous in LNCaP cells (human (endogenous in LNCaP)) (UniProt P17535). The experiment in a line: proximity ligation.
Sequence of UniProt P17535 (P17535 whole entry): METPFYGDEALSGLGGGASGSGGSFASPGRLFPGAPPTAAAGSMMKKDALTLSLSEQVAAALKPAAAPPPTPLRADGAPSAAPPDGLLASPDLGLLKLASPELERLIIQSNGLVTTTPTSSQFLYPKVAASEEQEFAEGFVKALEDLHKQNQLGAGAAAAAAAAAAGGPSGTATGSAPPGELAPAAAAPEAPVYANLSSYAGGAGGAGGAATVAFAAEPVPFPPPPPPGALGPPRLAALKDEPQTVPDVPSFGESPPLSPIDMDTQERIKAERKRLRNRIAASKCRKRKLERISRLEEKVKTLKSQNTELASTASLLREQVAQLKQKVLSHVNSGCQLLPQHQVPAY

As to “Androgen receptor (AR), endogenous in LNCaP cells (from UniProt P10275 1-920)”, the fold induction of PLA spots per cell by androgen (against cells without R1881) was 3 fold.
